Experiments:
[1] = molecular target: BAM2 N-terminal deletion mutant (NDel), lacking the acidic region (Arabidopsis thaliana) (UniProt O65258); test: SEC-MALS; proteins at 1-2 mg mL^-1 injected into a 4.6 x 300 mm size-exclusion column, 0.5 mL min^-1, 10 mM MOPS, pH 7, 250 mM KCl; masses are averages, n = 3
[2] = molecular target: the molecule itself; test: as above

Molecule | stoichiometry N [1] | stoichiometry N [2]
BAM2 N-terminal deletion mutant (NDel), lacking the acidic region (from UniProt O65258 86-542) (enzyme) | 4 | 
Arabidopsis thaliana β-AMYLASE2 (BAM2), wild type, without chloroplast transit peptide (enzyme, UniProt O65258 56-542, looked up, β-amylase 2 (BAM2), Arabidopsis thaliana, NP_191958.3, lacking its predicted 55 amino acid N-terminal chloroplast transit peptide; the start at residue 56 is worked out from that statement; Expression vector in pETDuet-1; Predicted monomer mass without transit peptide is 57.1 kDa; also called WT BAM2; WT; source: E. coli BL21+, purified by the N-terminal 6-His tag) AESTEEDRVPIDDDDDSTDQLVDEEIVHFEERDFAGTACVPVYVMLPLGVIDMNSEVVEPEELLDQLRTLKSVNVDGVMVDCWWGIVESHTPQVYNWSGYKKLFQMIRELGLKIQVVMSFHECGGNVGDDVHIQIPEWVREIGQSNPDIYFTDSAGRRNTECLTWGIDKQRVLRGRTALEVYFDYMRSFRVEFDEFFEEKIIPEIEVGLGPCGELRYPSYPAQFGWKYPGIGEFQCYDKYLMNSLKEAAEVRGHSFWGRGPDNTETYNSTPHGTGFFRDGGDYDSYYGRFFLNWYSRVLIDHGDRVLAMANLAFEGTCIAAKLSGIHWWYKTASHAAELTAGFYNSSNRDGYGPIAAMFKKHDAALNFTCVELRTLDQHEDFPEALADPEGLVWQVLNAAWDASIPVASENALPCYDREGYNKILENAKPLTDPDGRHLSCFTYLRLNPTLMESQNFKEFERFLKRMHGEAVPDLGLAPGTQETNPE |  | 4
BAM2 W456A mutant (Interface A) (enzyme, Arabidopsis thaliana, UniProt O65258 56-542, looked up, β-amylase 2 (BAM2), Arabidopsis thaliana, NP_191958.3, lacking its predicted 55 amino acid N-terminal chloroplast transit peptide, with Trp456 changed to Ala; Made by QuikChange mutagenesis in the WT pETDuet-1 construct (Monroe et al., 2017); also called B2_W456A; source: E. coli BL21+, purified by the N-terminal 6-His tag) AESTEEDRVPIDDDDDSTDQLVDEEIVHFEERDFAGTACVPVYVMLPLGVIDMNSEVVEPEELLDQLRTLKSVNVDGVMVDCWWGIVESHTPQVYNWSGYKKLFQMIRELGLKIQVVMSFHECGGNVGDDVHIQIPEWVREIGQSNPDIYFTDSAGRRNTECLTWGIDKQRVLRGRTALEVYFDYMRSFRVEFDEFFEEKIIPEIEVGLGPCGELRYPSYPAQFGWKYPGIGEFQCYDKYLMNSLKEAAEVRGHSFWGRGPDNTETYNSTPHGTGFFRDGGDYDSYYGRFFLNWYSRVLIDHGDRVLAMANLAFEGTCIAAKLSGIHWWYKTASHAAELTAGFYNSSNRDGYGPIAAMFKKHDAALNFTCVELRTLDQHEDFPEALADPEGLVWQVLNAAADASIPVASENALPCYDREGYNKILENAKPLTDPDGRHLSCFTYLRLNPTLMESQNFKEFERFLKRMHGEAVPDLGLAPGTQETNPE |  | 2
BAM2 F238A mutant (Interface B) (enzyme, Arabidopsis thaliana, UniProt O65258 56-542, looked up, β-amylase 2 (BAM2), Arabidopsis thaliana, NP_191958.3, lacking its predicted 55 amino acid N-terminal chloroplast transit peptide, with Phe238 changed to Ala; Made by QuikChange mutagenesis in the WT pETDuet-1 construct (Monroe et al., 2017); also called B2_F238A; source: E. coli BL21+, purified by the N-terminal 6-His tag) AESTEEDRVPIDDDDDSTDQLVDEEIVHFEERDFAGTACVPVYVMLPLGVIDMNSEVVEPEELLDQLRTLKSVNVDGVMVDCWWGIVESHTPQVYNWSGYKKLFQMIRELGLKIQVVMSFHECGGNVGDDVHIQIPEWVREIGQSNPDIYFTDSAGRRNTECLTWGIDKQRVLRGRTALEVYADYMRSFRVEFDEFFEEKIIPEIEVGLGPCGELRYPSYPAQFGWKYPGIGEFQCYDKYLMNSLKEAAEVRGHSFWGRGPDNTETYNSTPHGTGFFRDGGDYDSYYGRFFLNWYSRVLIDHGDRVLAMANLAFEGTCIAAKLSGIHWWYKTASHAAELTAGFYNSSNRDGYGPIAAMFKKHDAALNFTCVELRTLDQHEDFPEALADPEGLVWQVLNAAWDASIPVASENALPCYDREGYNKILENAKPLTDPDGRHLSCFTYLRLNPTLMESQNFKEFERFLKRMHGEAVPDLGLAPGTQETNPE |  | 2
